Results on two compounds are retold here after article PMC6945111, “Cryo-EM Structure of Nucleotide-Bound Tel1^ATM Unravels the Molecular Basis of Inhibition and Structural Rationale for Disease-Associated Mutations” (Structure(London, England:1993), 2020).

Broadly, the stoichiometry N is the number of molecules, sites or subunits per partner or assembly.

Assay [1] has as its target Saccharomyces cerevisiae Tel1 (Saccharomyces cerevisiae) (UniProt P38110). The assay can be described thus: cryo-EM structure; Tel1 100 nM with 1 mM AMP-PNP and 4 mM Mg(OAc)2, diluted into 50 mM Tris-HCl, 50 mM NaCl, pH 7.4; C2 symmetry applied; homodimer.
Another assay concerns the target T1, Tel1 (Saccharomyces cerevisiae, UniProt P38110).
T1 construct: full-length 2787 residues, homodimer; expressed as GST-Tel1 (pBL602, Gal promoter) in S. cerevisiae PY265
The assay can be described thus: cryo-EM structure. The conditions noted are these: 3.7-3.9 A resolution; 1 mM AMP-PNP, 4 mM Mg(OAc)2, pH 7.4, on ice; kinase active site, one Mg2+ modelled, 1 ligand per monomer. It counts as binding.

T1 sequence (P38110 whole entry): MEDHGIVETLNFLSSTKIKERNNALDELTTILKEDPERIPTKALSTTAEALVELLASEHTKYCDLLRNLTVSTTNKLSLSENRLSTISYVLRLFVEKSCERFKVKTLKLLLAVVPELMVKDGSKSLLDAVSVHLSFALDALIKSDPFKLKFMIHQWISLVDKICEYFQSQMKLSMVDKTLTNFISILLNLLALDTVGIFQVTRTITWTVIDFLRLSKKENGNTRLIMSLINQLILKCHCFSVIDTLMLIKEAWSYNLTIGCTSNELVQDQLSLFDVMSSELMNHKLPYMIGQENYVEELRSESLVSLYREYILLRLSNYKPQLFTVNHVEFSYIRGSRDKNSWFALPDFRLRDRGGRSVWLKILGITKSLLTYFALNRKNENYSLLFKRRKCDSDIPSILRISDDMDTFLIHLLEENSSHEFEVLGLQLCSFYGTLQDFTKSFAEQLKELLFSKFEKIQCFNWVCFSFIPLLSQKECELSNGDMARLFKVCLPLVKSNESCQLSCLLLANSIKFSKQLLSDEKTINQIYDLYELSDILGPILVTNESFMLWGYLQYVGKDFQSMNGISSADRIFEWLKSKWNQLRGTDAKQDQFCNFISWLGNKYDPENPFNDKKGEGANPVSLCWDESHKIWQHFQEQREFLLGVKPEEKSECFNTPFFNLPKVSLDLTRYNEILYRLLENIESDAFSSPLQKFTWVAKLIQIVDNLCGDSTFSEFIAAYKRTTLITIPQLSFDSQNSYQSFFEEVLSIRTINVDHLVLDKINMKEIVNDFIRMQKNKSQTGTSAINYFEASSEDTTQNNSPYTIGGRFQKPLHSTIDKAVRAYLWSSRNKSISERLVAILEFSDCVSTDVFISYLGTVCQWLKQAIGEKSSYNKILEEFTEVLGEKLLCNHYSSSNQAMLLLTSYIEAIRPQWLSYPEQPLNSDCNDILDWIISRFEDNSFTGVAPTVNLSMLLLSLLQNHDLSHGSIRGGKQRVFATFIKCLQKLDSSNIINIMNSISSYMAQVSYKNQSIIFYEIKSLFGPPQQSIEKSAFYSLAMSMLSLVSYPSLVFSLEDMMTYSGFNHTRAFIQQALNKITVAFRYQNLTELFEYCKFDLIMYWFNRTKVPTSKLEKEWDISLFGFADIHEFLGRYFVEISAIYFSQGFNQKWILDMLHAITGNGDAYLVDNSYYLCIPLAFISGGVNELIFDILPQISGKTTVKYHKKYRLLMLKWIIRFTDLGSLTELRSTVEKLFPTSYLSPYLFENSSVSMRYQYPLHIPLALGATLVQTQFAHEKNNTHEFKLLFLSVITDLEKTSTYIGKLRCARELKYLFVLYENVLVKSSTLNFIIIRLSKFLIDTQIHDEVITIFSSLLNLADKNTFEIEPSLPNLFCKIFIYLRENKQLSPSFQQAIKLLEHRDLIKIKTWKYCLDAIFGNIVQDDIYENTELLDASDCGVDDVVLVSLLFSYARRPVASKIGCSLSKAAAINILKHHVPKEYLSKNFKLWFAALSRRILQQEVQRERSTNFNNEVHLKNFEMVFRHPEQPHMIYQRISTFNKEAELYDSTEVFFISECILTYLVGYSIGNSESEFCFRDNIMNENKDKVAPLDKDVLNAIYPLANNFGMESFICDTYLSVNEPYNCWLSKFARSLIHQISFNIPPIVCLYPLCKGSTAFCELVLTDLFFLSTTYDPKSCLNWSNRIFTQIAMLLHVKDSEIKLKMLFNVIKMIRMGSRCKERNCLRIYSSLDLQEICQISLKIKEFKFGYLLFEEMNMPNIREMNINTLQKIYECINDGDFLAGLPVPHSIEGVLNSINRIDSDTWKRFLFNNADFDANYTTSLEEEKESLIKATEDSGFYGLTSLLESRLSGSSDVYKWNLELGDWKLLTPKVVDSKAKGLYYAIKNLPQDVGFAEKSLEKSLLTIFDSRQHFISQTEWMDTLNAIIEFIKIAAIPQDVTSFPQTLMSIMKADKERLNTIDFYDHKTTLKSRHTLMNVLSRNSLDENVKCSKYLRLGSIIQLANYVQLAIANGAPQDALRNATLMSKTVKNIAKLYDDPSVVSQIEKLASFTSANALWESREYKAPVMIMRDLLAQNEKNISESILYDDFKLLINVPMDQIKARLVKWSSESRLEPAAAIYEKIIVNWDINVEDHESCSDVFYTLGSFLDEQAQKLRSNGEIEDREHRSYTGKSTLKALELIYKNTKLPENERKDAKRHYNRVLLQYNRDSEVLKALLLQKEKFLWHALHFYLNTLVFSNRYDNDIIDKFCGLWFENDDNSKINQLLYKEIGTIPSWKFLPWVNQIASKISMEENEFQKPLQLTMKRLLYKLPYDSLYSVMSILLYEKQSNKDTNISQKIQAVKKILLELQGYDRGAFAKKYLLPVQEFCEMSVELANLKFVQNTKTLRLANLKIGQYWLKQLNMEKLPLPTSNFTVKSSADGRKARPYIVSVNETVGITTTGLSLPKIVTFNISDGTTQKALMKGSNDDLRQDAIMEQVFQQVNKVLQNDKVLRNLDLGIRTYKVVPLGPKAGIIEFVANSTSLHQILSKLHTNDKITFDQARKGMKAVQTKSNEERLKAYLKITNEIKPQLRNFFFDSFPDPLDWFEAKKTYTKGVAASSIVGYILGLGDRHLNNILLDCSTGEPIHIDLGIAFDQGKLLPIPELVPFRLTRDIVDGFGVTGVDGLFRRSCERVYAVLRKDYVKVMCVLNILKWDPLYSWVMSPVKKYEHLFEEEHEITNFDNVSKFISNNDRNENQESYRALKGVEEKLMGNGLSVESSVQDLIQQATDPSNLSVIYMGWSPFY

On to “Saccharomyces cerevisiae Tel1, P38110 1-2787”, for which, in assay [1], the stoichiometry N was 2.
Take `Nc1ncnc2c1ncn2[C@@H]1O[C@H](COP(=O)(O)OP(=O)(O)NP(=O)(O)O)[C@@H](O)[C@H]1O` [AMP-PNP]: the cryo-EM structure entry on Tel1 is reported as “clear density for AMP-PNP”.
